Experimental data from PMC2989460.

Target: anaphase-promoting complex/cyclosome (APC/C), human (human (endogenous in HeLa)) (UniProt Q9H1A4)
Assay: cryo-EM structure

Sequence of UniProt Q9H1A4 (Q9H1A4 whole entry, looked up, one chain of several): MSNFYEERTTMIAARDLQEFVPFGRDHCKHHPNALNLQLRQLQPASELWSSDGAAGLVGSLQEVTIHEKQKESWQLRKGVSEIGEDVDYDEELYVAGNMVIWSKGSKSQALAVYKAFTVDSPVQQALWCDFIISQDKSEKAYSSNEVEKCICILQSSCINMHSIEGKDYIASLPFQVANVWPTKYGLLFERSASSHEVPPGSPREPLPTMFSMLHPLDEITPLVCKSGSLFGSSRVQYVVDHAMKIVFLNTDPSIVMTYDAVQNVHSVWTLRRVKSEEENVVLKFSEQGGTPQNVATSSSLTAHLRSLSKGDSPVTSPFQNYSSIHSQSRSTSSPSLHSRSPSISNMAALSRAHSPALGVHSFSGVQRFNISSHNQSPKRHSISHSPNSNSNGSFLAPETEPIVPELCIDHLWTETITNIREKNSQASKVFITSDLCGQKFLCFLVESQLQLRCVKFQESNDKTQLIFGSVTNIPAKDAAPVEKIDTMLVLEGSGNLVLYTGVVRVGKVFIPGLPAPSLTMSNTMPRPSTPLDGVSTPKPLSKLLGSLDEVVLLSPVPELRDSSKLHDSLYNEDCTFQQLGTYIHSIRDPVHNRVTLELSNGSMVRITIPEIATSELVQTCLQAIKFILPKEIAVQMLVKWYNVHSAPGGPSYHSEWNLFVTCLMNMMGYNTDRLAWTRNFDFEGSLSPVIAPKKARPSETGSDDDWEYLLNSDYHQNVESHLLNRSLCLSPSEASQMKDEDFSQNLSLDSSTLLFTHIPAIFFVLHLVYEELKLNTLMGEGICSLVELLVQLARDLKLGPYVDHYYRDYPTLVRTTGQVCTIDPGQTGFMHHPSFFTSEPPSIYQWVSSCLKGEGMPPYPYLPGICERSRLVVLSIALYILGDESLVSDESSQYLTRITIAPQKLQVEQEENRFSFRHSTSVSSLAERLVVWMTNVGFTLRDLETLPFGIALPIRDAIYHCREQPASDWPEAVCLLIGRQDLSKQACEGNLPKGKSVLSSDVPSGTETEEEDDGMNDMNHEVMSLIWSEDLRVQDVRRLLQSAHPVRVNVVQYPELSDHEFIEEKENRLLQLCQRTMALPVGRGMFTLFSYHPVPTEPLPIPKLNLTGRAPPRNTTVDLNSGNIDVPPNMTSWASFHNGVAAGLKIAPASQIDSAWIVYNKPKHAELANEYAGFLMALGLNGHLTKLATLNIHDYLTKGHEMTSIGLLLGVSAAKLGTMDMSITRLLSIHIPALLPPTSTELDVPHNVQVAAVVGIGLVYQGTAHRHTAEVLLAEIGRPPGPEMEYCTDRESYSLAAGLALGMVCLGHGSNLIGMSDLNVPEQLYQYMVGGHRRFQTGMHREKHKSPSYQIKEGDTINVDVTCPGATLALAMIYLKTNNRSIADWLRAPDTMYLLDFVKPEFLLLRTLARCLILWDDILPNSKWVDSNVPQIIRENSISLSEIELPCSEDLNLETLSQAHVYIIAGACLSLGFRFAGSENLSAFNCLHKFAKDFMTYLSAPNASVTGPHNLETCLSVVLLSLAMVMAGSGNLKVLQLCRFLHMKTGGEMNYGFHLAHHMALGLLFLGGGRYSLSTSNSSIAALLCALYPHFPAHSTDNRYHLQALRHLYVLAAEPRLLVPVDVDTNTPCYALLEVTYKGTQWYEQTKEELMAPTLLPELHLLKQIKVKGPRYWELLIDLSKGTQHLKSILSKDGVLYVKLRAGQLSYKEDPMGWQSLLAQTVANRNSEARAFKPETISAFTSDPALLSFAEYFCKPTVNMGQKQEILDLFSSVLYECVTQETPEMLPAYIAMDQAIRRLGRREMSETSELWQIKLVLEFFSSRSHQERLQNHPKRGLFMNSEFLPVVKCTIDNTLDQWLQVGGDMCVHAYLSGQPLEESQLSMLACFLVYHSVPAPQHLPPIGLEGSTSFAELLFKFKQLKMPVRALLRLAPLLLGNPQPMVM

- percent of APC/C molecules with the additional Cdc20 mass: 30%
Substance: recombinant Cdc20 (from UniProt Q12834 1-499) (natural protein)
